Substitutions are numbered along the chain they refer to. Blank lines part the entries; values can stand above or below the binder they belong to.
Assays:
[1] = biological target: T1, recombinant mouse αvβ1 integrin extracellular domains (mouse, UniProt P43406 1-988; P09055 1-728, Biotinylated on the Avitag (tag not in the letters); interchain disulfide between the coiled-coils (not in the letters).); experiment: AlphaLISA blocking of mouse fibronectin binding
T1 construct: Soluble heterodimer co-expressed in Expi293 cells; also called mαvβ1
T1 sequence (P43406 31-988 limits assumed, form in doubt, chain 1 of 2): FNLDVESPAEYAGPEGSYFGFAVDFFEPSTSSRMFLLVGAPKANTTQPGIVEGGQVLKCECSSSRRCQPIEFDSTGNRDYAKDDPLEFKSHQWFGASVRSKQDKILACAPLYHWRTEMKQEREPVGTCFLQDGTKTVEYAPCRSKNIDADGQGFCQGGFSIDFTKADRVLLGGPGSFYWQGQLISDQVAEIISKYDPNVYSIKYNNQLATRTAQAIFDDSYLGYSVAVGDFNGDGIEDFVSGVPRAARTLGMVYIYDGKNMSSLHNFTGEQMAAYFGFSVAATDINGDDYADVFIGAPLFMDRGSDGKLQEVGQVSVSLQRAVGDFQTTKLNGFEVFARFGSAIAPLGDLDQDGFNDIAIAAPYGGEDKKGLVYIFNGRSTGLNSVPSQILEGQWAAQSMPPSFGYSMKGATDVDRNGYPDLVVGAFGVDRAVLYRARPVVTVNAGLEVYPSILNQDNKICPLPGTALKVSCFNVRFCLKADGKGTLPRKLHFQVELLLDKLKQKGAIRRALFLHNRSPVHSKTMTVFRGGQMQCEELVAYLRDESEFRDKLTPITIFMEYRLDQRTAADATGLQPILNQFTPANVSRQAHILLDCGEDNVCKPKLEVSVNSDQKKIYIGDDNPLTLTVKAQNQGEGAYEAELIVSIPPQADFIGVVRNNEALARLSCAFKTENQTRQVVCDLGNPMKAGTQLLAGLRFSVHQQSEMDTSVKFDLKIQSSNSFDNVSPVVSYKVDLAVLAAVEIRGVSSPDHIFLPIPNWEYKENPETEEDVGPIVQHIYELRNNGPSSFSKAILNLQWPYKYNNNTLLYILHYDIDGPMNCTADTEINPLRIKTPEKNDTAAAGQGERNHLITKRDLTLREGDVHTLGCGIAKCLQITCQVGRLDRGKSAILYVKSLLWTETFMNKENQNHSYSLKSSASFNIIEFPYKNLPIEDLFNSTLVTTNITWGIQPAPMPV
T1 sequence (P09055 21-728 limits assumed, form in doubt, chain 2 of 2): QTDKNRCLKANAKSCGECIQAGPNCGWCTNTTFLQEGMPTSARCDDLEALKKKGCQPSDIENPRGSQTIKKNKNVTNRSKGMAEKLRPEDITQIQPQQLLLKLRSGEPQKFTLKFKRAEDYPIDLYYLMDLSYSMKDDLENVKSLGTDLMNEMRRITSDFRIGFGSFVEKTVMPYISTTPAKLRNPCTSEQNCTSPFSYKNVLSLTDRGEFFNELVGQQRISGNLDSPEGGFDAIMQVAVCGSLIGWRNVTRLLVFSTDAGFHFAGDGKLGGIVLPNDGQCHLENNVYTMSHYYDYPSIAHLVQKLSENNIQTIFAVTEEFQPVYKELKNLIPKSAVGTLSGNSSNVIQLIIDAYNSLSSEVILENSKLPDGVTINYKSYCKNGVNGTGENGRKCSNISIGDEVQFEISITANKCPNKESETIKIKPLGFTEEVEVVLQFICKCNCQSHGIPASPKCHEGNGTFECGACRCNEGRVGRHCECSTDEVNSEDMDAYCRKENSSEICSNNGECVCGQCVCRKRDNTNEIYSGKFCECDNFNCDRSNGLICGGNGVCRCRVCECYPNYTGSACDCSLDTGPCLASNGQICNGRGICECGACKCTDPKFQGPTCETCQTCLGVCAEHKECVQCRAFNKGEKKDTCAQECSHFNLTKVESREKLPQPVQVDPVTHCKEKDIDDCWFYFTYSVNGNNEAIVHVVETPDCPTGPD
Description: (§1) Briefly, the testing antibody (8 μL) was added as a 4×(of Final testing concentration) solution in the HEPES buffer described previously into a 384w AlphaPlate™ (Perkin Elmer #6005350). Then the integrin and ligand were added sequentially as 8×(4 μL each). Plates were sealed and incubated at room temperature for two hours. Then 4×acceptor bead solution ([…]) was added, and the plates were resealed and incubated at room temperature (RT) for one hour. Finally, 4×([…]) donor beads solution was added in a darkened room and incubated for 45 minutes at room temperature. Plates were read on the Envision (Perkin Elmer) in AlphaScreen™ mode within three hours of donor bead addition.

[2] = biological target: T2, recombinant mouse αvβ6 integrin extracellular domains (mouse, UniProt P43406 1-988; Q9Z0T9 1-706, Biotinylated on the Avitag (tag not in the letters); interchain disulfide between the coiled-coils (not in the letters).); experiment: AlphaLISA blocking of mouse LAP-6His binding
T2 construct: Soluble heterodimer co-expressed in Expi293 cells; also called mαvβ6
T2 sequence (P43406 31-988 limits assumed, form in doubt, chain 1 of 2): as the sequence (P43406 31-988 limits assumed, form in doubt, chain 1 of 2) above
T2 sequence (Q9Z0T9 22-706 limits assumed, form in doubt, chain 2 of 2): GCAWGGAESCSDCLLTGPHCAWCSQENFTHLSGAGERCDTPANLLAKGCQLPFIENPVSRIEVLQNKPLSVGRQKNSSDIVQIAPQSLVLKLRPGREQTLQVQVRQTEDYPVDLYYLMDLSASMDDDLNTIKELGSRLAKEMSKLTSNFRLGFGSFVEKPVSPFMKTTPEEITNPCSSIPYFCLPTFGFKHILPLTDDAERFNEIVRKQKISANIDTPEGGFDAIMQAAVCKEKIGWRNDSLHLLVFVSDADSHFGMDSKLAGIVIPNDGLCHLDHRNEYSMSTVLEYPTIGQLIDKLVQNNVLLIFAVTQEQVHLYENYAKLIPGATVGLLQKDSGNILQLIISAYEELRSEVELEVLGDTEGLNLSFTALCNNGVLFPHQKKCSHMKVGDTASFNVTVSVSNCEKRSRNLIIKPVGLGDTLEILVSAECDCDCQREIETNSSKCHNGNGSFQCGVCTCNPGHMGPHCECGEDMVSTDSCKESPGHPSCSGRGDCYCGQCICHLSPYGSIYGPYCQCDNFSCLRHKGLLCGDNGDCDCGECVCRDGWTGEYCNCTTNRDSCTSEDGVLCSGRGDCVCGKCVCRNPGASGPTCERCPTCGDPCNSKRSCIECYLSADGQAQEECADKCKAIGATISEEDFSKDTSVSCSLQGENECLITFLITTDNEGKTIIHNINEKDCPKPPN
Description: as §1

[3] = biological target: T3, human α5β1 integrin on CHOK1 stable cells (human, UniProt P08648 42-1049; P05556 21-798); experiment: cell-based ELISA (CELISA), CHOK1 cells expressing the integrin
T3 construct: whole, on cells; Stably expressed on CHOK1 cells; also called hα5β1; CHOK1-human α5β1
Description: (§2) Integrin cell-based ELISA (CELISA) assay. Cell binding EC₅₀ data for antibodies were obtained for CHOK1 parental cells and CHOK1 cells expressing human or mouse αvβ1, αvβ6, and αvβ1 integrins by cell-based ELISA. Three days prior to the assay cells were seeded at 10,000 cells per well in 100 μL/well of media in Falcon 96-well Flat-Bottom Tissue Culture Plates (REF 353916), resulting in an even cell monolayer in each well on the day of the assay. On the day of the assay, media was removed from the cells and a fivefold titration of primary antibodies was added at concentrations ranging from 0 to 200 nM in TBSF+MnCl₂ buffer (25 mM Tris, 0.15 M NaCl, 0.1% BSA, 0.5 mM MnCl₂, pH 7.5). Cells incubated with primary antibody solution for 1 hour at room temperature. […] After 30 minutes of incubation at room temperature, secondary antibody was removed, and cells were washed twice with 150 μL/well of 1×DPBS+Tween 20. Then 50 μL/well of TMB substrate (1-Step Ultra TMB-ELISA, Thermo Scientific, #34028) was added, incubated with cells at room temperature, and 50 μL/well of TMB stop solution (Seracare, #KPL 50-85-05) was then added after five minutes. Absorbance was read on a TECAN plate reader at 450 nm, with a 620 nm reference wavelength.

[4] = biological target: T4, mouse αvβ1 integrin on CHOK1 stable cells (mouse, UniProt P43406 31-1044; P09055 21-798); experiment: as above
T4 construct: whole, on cells; Stably expressed on CHOK1 cells; the adhesion assay used the line with the hamster α5 gene knocked out (CHOK1-α5KO-mαvβ1); also called mαvβ1; CHOK1-mouse αvβ1
Description: as §2

[5] = biological target: T5, human αvβ6 integrin on CHOK1 stable cells (human, UniProt P06756 31-1048; P18564 22-788); experiment: as above
T5 construct: whole, on cells; Stably expressed on CHOK1 cells; also called hαvβ6; CHOK1-human αvβ6
Description: as §2

[6] = biological target: T6, mouse αvβ6 integrin on CHOK1 stable cells (mouse, UniProt P43406 31-1044; Q9Z0T9 22-787); experiment: as above
T6 construct: whole, on cells; Stably expressed on CHOK1 cells; also called mαvβ6; CHOK1-mouse αvβ6
Description: as §2

[7] = biological target: T7, mouse α5β1 integrin on CHOK1 stable cells (mouse, UniProt P11688 45-1053; P09055 21-798); experiment: as above
T7 construct: whole, on cells; Stably expressed on CHOK1 cells; also called mα5β1; CHOK1-mouse α5β1
T7 sequence (P11688 45-1053, chain 1 of 2): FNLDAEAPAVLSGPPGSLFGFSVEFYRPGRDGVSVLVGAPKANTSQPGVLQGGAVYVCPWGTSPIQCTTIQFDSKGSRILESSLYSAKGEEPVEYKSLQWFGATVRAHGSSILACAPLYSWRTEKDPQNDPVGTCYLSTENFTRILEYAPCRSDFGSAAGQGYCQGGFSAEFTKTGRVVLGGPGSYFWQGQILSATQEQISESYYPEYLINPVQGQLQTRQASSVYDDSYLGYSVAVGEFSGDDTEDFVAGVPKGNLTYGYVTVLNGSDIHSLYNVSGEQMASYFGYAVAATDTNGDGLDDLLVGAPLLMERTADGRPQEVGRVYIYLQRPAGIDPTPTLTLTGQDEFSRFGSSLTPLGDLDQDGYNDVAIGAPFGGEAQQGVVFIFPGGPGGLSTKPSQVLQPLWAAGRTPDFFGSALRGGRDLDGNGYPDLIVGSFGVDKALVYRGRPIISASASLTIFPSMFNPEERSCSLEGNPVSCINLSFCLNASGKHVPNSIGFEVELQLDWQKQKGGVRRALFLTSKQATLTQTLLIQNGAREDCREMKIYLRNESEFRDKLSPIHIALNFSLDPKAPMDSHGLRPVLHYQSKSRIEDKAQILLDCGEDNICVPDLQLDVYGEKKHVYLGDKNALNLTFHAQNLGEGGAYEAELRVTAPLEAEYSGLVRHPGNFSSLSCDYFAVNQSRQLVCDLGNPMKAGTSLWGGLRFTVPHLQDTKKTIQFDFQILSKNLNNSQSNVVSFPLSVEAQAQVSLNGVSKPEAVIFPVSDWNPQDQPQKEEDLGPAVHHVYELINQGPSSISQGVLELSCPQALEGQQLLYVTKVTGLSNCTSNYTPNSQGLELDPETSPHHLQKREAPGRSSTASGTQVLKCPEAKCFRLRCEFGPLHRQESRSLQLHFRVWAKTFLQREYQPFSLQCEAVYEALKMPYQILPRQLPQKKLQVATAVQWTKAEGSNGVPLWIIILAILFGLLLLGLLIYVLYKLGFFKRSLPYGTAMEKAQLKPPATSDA
T7 sequence (P09055 21-798, chain 2 of 2): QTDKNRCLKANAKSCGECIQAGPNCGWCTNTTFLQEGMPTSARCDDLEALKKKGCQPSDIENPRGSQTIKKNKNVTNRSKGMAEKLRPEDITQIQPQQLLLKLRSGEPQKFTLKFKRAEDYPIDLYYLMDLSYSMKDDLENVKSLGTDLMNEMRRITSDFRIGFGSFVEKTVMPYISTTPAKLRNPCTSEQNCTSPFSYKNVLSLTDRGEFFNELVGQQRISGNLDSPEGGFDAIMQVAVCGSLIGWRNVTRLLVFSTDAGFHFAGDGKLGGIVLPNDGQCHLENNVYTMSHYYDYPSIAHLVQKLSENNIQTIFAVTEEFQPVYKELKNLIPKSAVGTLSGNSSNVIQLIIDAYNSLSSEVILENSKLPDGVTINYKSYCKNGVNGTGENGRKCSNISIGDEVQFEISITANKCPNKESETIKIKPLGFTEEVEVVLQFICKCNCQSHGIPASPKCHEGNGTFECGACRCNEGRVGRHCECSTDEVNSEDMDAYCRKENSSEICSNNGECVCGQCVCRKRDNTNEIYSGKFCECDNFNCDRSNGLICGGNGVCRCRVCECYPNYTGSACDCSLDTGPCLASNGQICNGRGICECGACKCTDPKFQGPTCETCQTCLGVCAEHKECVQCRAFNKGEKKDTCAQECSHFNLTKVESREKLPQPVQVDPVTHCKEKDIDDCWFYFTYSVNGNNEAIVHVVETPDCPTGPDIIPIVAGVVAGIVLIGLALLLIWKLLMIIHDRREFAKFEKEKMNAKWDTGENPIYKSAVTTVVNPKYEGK
Description: as §2

[8] = biological target: T8, human αvβ1 integrin on CHOK1 stable cells (human, UniProt P06756 31-1048; P05556 21-798); experiment: as above
T8 construct: whole, on cells; Stably expressed on CHOK1 cells; also called hαvβ1; CHOK1-human αvβ1
Description: as §2

[9] = biological target: T9, recombinant human αvβ1 integrin extracellular domains (human, UniProt P06756 1-992; P05556 1-728, Secreted glycoprotein heterodimer. It is biotinylated on the omitted Avitag, and an interchain disulfide sits in the omitted coiled-coils.); experiment: ForteBio Octet Red (BLI)
T9 construct: Soluble heterodimer co-expressed in Expi293 cells; also called hαvβ1; not shown: Alpha chain: acidic coiled-coil with cysteine and GG-Avitag; Beta chain: basic coiled-coil with cysteine and GG-Avitag

[10] = biological target: T2, recombinant mouse αvβ6 integrin …; experiment: ForteBio Octet Red (BLI)
[11] = biological target: T1, recombinant mouse αvβ1 integrin …; experiment: ForteBio Octet Red (BLI)
[12] = biological target: T10, recombinant human αvβ8 integrin extracellular domains (human, UniProt P06756 1-992; P26012 1-684, Biotinylated on the Avitag (tag not in the letters); interchain disulfide between the coiled-coils (not in the letters).); experiment: AlphaLISA blocking of human LAP binding
T10 construct: Soluble heterodimer co-expressed in Expi293 cells; also called hαvβ8

[13] = biological target: T11, recombinant human αvβ6 integrin extracellular domains (human, UniProt P06756 1-992; P18564 1-709, Biotinylated on the Avitag (tag not in the letters); interchain disulfide between the coiled-coils (not in the letters).); experiment: AlphaLISA blocking of human LAP binding
T11 construct: Soluble heterodimer co-expressed in Expi293 cells; also called hαvβ6

IC50 [1]: 6.6 nM
IC50 [2]: 17.7 nM
EC50 [3]: 1.22 nM
EC50 [4]: 0.743 nM
EC50 [5]: 0.483 nM
EC50 [6]: 0.64 nM
EC50 [7]: 1.76 nM
EC50 [8]: 0.32 nM
Kd [9]: 14 nM
Kd [10]: 2.9 nM
Kd [11]: 48.4 nM
IC50 [12]: 47.8 nM
IC50 [13]: 30.9 nM
B1: Ab-31 (antibody, V domains shown)
VH: EVQLQESGPGLVKPSETLSLTCAVSGYSISSGYYWGWIRQPPGKGLEWIGSIYHSGNTYYNPSLKSRVTISVDTSKNQFSLKLSSVTAADTAVYYCARVPRYSRGDAYYYYGMDVWGQGTTVTVSS
VL: DIQMTQSPSTLSASVGDRVTITCRASQSIGSWLAWYQQKPGKAPKLLIYKASSLESGVPSRFSGSGSGTEFTLTISSLQPDDFATYYCQQSGPYPWTFGGGTKVEIK

IC50 [1]: 6.8 nM
IC50 [2]: 23.2 nM
EC50 [3]: 0.495 nM
EC50 [4]: 0.593 nM
EC50 [5]: 0.323 nM
EC50 [6]: 0.335 nM
EC50 [7]: 0.03 nM
EC50 [8]: 0.23 nM
Kd [9]: 6.75 nM
Kd [10]: 3.03 nM
Kd [11]: 35 nM
IC50 [12]: 19.7 nM
IC50 [13]: 25.4 nM
B2: Ab-30 (antibody, V domains shown)
VH: B1 VH
VL: DIQMTQSPSTLSASVGDRVTITCRASQSISSWLAWYQQKPGKAPKLLIYKASSLESGVPSRFSGSGSGTEFTLTISSLQPDDFATYYCQQVKIYPPYTFGGGTKVEIK

IC50 [1]: 6.7 nM
IC50 [2]: 17.1 nM
EC50 [3]: 0.597 nM
EC50 [4]: 0.609 nM
EC50 [5]: 0.438 nM
EC50 [6]: 0.508 nM
EC50 [7]: 0.131 nM
EC50 [8]: 0.335 nM
Kd [9]: 7.4 nM
Kd [10]: 2.59 nM
Kd [11]: 25.9 nM
IC50 [12]: 48 nM
IC50 [13]: 16.4 nM
B4: Ab-32 (antibody, V domains shown)
VH: B1 VH
VL: EIVLTQSPGTLSLSPGERATLSCRASQSVRSSYLAWYQQKPGQAPRLLIYGASSRATGIPDRFSGSGSGTDFTLTISRLEPEDFAVYYCQQAGLVFTFGGGTKVEIK

Further lines, the binder ahead of its results:

B3: Ab-33 (antibody, V domains shown)
VH: EVQLVQSGAEVKKPGSSVKVSCKASGGTFSNYAISWVRQAPGQGLEWMGGIIPIFGTANYAQKFQGRVTITADESTSTAYMELSSLRSEDTAVYYCARAPRSARGDMYYYYYGMDVWGQGTTVTVSS
VL: B1 VL with S91Y, P93R
IC50 [1]: 4.5 nM
IC50 [2]: 6.6 nM
EC50 [4]: 2.84 nM
EC50 [5]: 0.417 nM
EC50 [6]: 2.84 nM
EC50 [8]: 0.702 nM
Kd [9]: 12.7 nM
Kd [10]: 2.45 nM
Kd [11]: 37.7 nM
IC50 [12]: 12.2 nM
IC50 [13]: 7.49 nM

B5: Ab-29 (antibody, V domains shown)
VH: ELQLQESGPGLVKPSETLSLTCTVSGGSISSNSYYWGWIRQPPGKGLEWIGSIYYSGSTYYNPSLKSRVTISVDTSKNQFSLKLSSVTAADTAVYYCARVRRVAGRGDSYYYYYGMDVWGQGTTVTVSS
VL: DIQMTQSPSSVSASVGDRVTITCRASQGISRWLAWYQQKPGKAPKLLIYAASSLQSGVPSRFSGSGSGTDFTLTISSLQPEDFATYYCQQAISHPWTFGGGTKVEIK
IC50 [1]: 3.4 nM
IC50 [2]: 26.3 nM
EC50 [3]: 0.166 nM
EC50 [4]: 1.09 nM
EC50 [5]: 0.861 nM
EC50 [6]: 0.285 nM
EC50 [7]: 0.213 nM
EC50 [8]: 0.198 nM
Kd [9]: 2.7 nM
Kd [10]: 4.11 nM
Kd [11]: 4.21 nM
IC50 [12]: 200 nM
IC50 [13]: 96 nM

Source: patent publication US20250313635A1 (Merck Sharp & Dohme, published 2025)
